Assay results from article PMC4345975.

Molecular target: GFP–cyclin A (human) (UniProt P20248)
Test: fluorescence cross-correlation spectroscopy

Sequence of UniProt P20248 (P20248 whole entry): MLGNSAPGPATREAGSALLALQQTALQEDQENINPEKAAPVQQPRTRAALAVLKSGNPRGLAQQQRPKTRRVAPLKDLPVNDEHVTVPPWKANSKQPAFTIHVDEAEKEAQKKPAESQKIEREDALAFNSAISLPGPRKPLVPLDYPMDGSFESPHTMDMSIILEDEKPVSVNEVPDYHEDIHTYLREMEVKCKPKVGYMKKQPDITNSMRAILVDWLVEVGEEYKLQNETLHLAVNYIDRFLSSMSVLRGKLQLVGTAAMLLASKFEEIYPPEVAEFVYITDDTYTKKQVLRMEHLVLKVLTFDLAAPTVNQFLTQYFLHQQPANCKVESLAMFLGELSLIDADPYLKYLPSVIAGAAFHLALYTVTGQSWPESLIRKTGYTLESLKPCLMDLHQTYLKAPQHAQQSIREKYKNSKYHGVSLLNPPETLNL

## mCherry–SAMHD1 (from UniProt Q9Y3Z3 1-626) (natural protein)
  cross-correlation: 9.9%
